Experimental data from patent US20190015515A1.

Key:
[1] = target: glucose transporter 4 (GLUT4) on mouse red blood cells (mRBCs) or mRBC membranes (mouse) (UniProt P14142); experiment: ELISA of insulin bound to mRBCs
[2] = target: glucose transporter 4 (GLUT4) on mouse red blood cells (mRBCs) or mRBC membranes (mouse) (UniProt P14142); experiment: ELISA of insulin released from Glu-Insulin loaded mRBCs at 37 C
[3] = target: glucose transporter 4 (GLUT4) on mouse red blood cells (mRBCs) or mRBC membranes (mouse) (UniProt P14142); experiment: flow cytometry (MFI) of Glu-FITC-insulin attached mRBCs treated with free glucose
[4] = target: glucose transporter 4 (GLUT4) on mouse red blood cells (mRBCs) or mRBC membranes (mouse) (UniProt P14142); experiment: loading of 1x10^8 RBCs with 0.5 mg/mL Glu-Insulin overnight, ELISA
[5] = target: glucose transporter 1 (GLUT1) on human red blood cells (hRBCs) (human) (UniProt P11166); experiment: as above
UniProt P11166, sequence (P11166 whole entry): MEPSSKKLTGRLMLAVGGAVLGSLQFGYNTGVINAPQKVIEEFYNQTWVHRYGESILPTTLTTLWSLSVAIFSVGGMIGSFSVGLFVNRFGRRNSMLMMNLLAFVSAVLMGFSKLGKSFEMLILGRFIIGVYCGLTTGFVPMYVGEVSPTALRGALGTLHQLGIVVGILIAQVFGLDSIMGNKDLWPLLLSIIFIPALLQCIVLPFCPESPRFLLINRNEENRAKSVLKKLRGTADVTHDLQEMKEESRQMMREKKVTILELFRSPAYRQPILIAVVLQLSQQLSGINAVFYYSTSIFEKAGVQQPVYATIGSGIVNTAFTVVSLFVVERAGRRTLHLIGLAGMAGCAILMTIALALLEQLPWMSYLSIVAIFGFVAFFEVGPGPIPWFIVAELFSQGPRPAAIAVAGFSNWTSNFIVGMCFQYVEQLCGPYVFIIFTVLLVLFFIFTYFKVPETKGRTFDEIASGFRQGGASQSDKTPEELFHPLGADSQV

UniProt P14142, sequence (P14142 whole entry): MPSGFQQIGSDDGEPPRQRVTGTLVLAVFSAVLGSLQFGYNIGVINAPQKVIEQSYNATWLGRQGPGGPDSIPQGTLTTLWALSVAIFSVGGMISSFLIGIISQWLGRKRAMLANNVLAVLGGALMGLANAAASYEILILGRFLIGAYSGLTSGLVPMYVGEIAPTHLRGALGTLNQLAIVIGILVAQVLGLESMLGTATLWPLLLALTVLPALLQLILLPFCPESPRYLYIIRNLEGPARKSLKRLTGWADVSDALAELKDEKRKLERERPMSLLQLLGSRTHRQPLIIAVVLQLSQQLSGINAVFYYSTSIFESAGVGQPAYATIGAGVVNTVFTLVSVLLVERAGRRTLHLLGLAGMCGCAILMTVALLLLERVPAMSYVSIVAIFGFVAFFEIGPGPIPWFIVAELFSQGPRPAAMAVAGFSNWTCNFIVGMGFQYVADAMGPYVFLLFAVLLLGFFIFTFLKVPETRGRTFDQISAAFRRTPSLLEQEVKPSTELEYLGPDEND

loaded insulin per cell [1]: < 5e-13 g per cell
percent released from mRBCs at 400 mg/dL glucose within 2 h [2]: 50%
decrease of insulin signal on mRBCs at 400 mg/dL glucose [3]: 50%
percent of Glu-Insulin bound [4]: 20%
percent of Glu-Insulin bound [5]: 60%
Substance: glucose-modified insulin (Glu-Insulin) (from UniProt P01308 90-110; P01308 25-54) (ligand)
